# Source: the Human Domainome abundance scans (Beltran et al. 2025)
# ± gives the uncertainty stated by the source.
# B1: Steroid hormone receptor ERR2, residues 100 to 176; numbered along this chain, O95718 (parent)
# chain: KRLCLVCGDIASGYHYGVASCEACKAFFKRTIQGNIEYSCPATNECEITKRRRKSCQACRFMKCLKVGMLKEGVRLD
# Variants of: B1
# Assay: abundance fitness (aPCA) (normalised: wild type 0, dead -1); higher = more abundant; growth selection in yeast, the domain comes from the species named
# Conditions: Homo sapiens
row,Variant,abundance fitness
1,KRLCLVCGDIASGYHYGVASCEACKAFFKRTIQGNHEYSCPATNECEITKRRRKSCQACRFMKCLKVGMLKEGVRLD [I36H],-0.167 ± 0.11
2,KRLCLVCGDIASGYHYGVASCEACKAFFKRTIQGNYEYSCPATNECEITKRRRKSCQACRFMKCLKVGMLKEGVRLD [I36Y],-0.235 ± 0.09
3,KRLCLVCGDIASGYHYGVASCEACKAFFKRTIQGNLEYSCPATNECEITKRRRKSCQACRFMKCLKVGMLKEGVRLD [I36L],-0.162 ± 0.048
4,KRLCLVCGDIASGYHYGVASCEACKAFFKRTIQGNNEYSCPATNECEITKRRRKSCQACRFMKCLKVGMLKEGVRLD [I36N],-0.185 ± 0.13
5,KRLCLVCGDIASGYHYGVASCEACKAFFKRTIQGNMEYSCPATNECEITKRRRKSCQACRFMKCLKVGMLKEGVRLD [I36M],-0.074 ± 0.056
6,KRLCLVCGDIASGYHYGVASCEACKAFFKRTIQGNAEYSCPATNECEITKRRRKSCQACRFMKCLKVGMLKEGVRLD [I36A],-0.032 ± 0.048
7,KRLCLVCGDIASGYHYGVASCEACKAFFKRTIQGNQEYSCPATNECEITKRRRKSCQACRFMKCLKVGMLKEGVRLD [I36Q],-0.16 ± 0.064
8,KRLCLVCGDIASGYHYGVASCEACKAFFKRTIQGNDEYSCPATNECEITKRRRKSCQACRFMKCLKVGMLKEGVRLD [I36D],-0.062 ± 0.077
9,KRLCLVCGDIASGYHYGVASCEACKAFFKRTIQGNFEYSCPATNECEITKRRRKSCQACRFMKCLKVGMLKEGVRLD [I36F],-0.095 ± 0.11
10,KRLCLVCGDIASGYHYGVASCEACKAFFKRTIQGNCEYSCPATNECEITKRRRKSCQACRFMKCLKVGMLKEGVRLD [I36C],-0.037 ± 0.076
11,KRLCLVCGDIASGYHYGVASCEACKAFFKRTIQGNKEYSCPATNECEITKRRRKSCQACRFMKCLKVGMLKEGVRLD [I36K],-0.129 ± 0.062
12,KRLCLVCGDIASGYHYGVASCEACKAFFKRTIQGNWEYSCPATNECEITKRRRKSCQACRFMKCLKVGMLKEGVRLD [I36W],-0.231 ± 0.053
13,KRLCLVCGDIASGYHYGVASCEACKAFFKRTIQGNPEYSCPATNECEITKRRRKSCQACRFMKCLKVGMLKEGVRLD [I36P],-0.182 ± 0.081
14,KRLCLVCGDIASGYHYGVASCEACKAFFKRTIQGNGEYSCPATNECEITKRRRKSCQACRFMKCLKVGMLKEGVRLD [I36G],-0.273 ± 0.041
15,KRLCLVCGDIASGYHYGVASCEACKAFFKRTIQGNTEYSCPATNECEITKRRRKSCQACRFMKCLKVGMLKEGVRLD [I36T],-0.288 ± 0.078
16,KRLCLVCGDIASGYHYGVASCEACKAFFKRTIQGNVEYSCPATNECEITKRRRKSCQACRFMKCLKVGMLKEGVRLD [I36V],0.003 ± 0.044
17,KRLCLVCGDIASGYHYGVASCEACKAFFKRTIQGNREYSCPATNECEITKRRRKSCQACRFMKCLKVGMLKEGVRLD [I36R],-0.26 ± 0.043
18,KRLCLVCGDIASGYHYGVASCEACKAFFKRTIQGNIEVSCPATNECEITKRRRKSCQACRFMKCLKVGMLKEGVRLD [Y38V],-0.541 ± 0.089
19,KRLCLVCGDIASGYHYGVASCEACKAFFKRTIQGNIEKSCPATNECEITKRRRKSCQACRFMKCLKVGMLKEGVRLD [Y38K],-0.725 ± 0.15
20,KRLCLVCGDIASGYHYGVASCEACKAFFKRTIQGNIEASCPATNECEITKRRRKSCQACRFMKCLKVGMLKEGVRLD [Y38A],-0.554 ± 0.085
21,KRLCLVCGDIASGYHYGVASCEACKAFFKRTIQGNIEDSCPATNECEITKRRRKSCQACRFMKCLKVGMLKEGVRLD [Y38D],-0.979 ± 0.37
22,KRLCLVCGDIASGYHYGVASCEACKAFFKRTIQGNIECSCPATNECEITKRRRKSCQACRFMKCLKVGMLKEGVRLD [Y38C],-0.293 ± 0.1
23,KRLCLVCGDIASGYHYGVASCEACKAFFKRTIQGNIEWSCPATNECEITKRRRKSCQACRFMKCLKVGMLKEGVRLD [Y38W],0.097 ± 0.047
24,KRLCLVCGDIASGYHYGVASCEACKAFFKRTIQGNIELSCPATNECEITKRRRKSCQACRFMKCLKVGMLKEGVRLD [Y38L],-0.398 ± 0.061

row,Variant,abundance fitness
1,KRLCLVCGDIASGYHYGVASCEACKAFFKRTIQGNIEESCPATNECEITKRRRKSCQACRFMKCLKVGMLKEGVRLD [Y38E],-0.586 ± 0.11
2,KRLCLVCGDIASGYHYGVASCEACKAFFKRTIQGNIEPSCPATNECEITKRRRKSCQACRFMKCLKVGMLKEGVRLD [Y38P],-0.547 ± 0.13
3,KRLCLVCGDIASGYHYGVASCEACKAFFKRTIQGNIEQSCPATNECEITKRRRKSCQACRFMKCLKVGMLKEGVRLD [Y38Q],-0.841 ± 0.16
4,KRLCLVCGDIASGYHYGVASCEACKAFFKRTIQGNIERSCPATNECEITKRRRKSCQACRFMKCLKVGMLKEGVRLD [Y38R],-0.347 ± 0.049
5,KRLCLVCGDIASGYHYGVASCEACKAFFKRTIQGNIEISCPATNECEITKRRRKSCQACRFMKCLKVGMLKEGVRLD [Y38I],-0.421 ± 0.36
6,KRLCLVCGDIASGYHYGVASCEACKAFFKRTIQGNIEGSCPATNECEITKRRRKSCQACRFMKCLKVGMLKEGVRLD [Y38G],-0.394 ± 0.057
7,KRLCLVCGDIASGYHYGVASCEACKAFFKRTIQGNIEHSCPATNECEITKRRRKSCQACRFMKCLKVGMLKEGVRLD [Y38H],-0.196 ± 0.17
8,KRLCLVCGDIASGYHYGVASCEACKAFFKRTIQGNIESSCPATNECEITKRRRKSCQACRFMKCLKVGMLKEGVRLD [Y38S],-0.518 ± 0.08
9,KRLCLVCGDIASGYHYGVASCEACKAFFKRTIQGNIETSCPATNECEITKRRRKSCQACRFMKCLKVGMLKEGVRLD [Y38T],-0.636 ± 0.13
10,KRLCLVCGDIASGYHYGVASCEACKAFFKRTIQGNIEFSCPATNECEITKRRRKSCQACRFMKCLKVGMLKEGVRLD [Y38F],-0.037 ± 0.13
11,KRLCLVCGDIASGYHYGVASCEACKAFFKRTIQGNIEMSCPATNECEITKRRRKSCQACRFMKCLKVGMLKEGVRLD [Y38M],-0.548 ± 0.11
12,KRLCLVCGDIASGYHYGVASCEACKAFFKRTIQGNITYSCPATNECEITKRRRKSCQACRFMKCLKVGMLKEGVRLD [E37T],-0.796 ± 0.21
13,KRLCLVCGDIASGYHYGVASCEACKAFFKRTIQGNIYYSCPATNECEITKRRRKSCQACRFMKCLKVGMLKEGVRLD [E37Y],-0.745 ± 0.26
14,KRLCLVCGDIASGYHYGVASCEACKAFFKRTIQGNIQYSCPATNECEITKRRRKSCQACRFMKCLKVGMLKEGVRLD [E37Q],-0.41 ± 0.1
15,KRLCLVCGDIASGYHYGVASCEACKAFFKRTIQGNIIYSCPATNECEITKRRRKSCQACRFMKCLKVGMLKEGVRLD [E37I],-0.341 ± 0.18
16,KRLCLVCGDIASGYHYGVASCEACKAFFKRTIQGNIFYSCPATNECEITKRRRKSCQACRFMKCLKVGMLKEGVRLD [E37F],-0.851 ± 0.42
17,KRLCLVCGDIASGYHYGVASCEACKAFFKRTIQGNIKYSCPATNECEITKRRRKSCQACRFMKCLKVGMLKEGVRLD [E37K],-0.532 ± 0.13
18,KRLCLVCGDIASGYHYGVASCEACKAFFKRTIQGNIGYSCPATNECEITKRRRKSCQACRFMKCLKVGMLKEGVRLD [E37G],-0.122 ± 0.041
19,KRLCLVCGDIASGYHYGVASCEACKAFFKRTIQGNINYSCPATNECEITKRRRKSCQACRFMKCLKVGMLKEGVRLD [E37N],-0.575 ± 0.21
20,KRLCLVCGDIASGYHYGVASCEACKAFFKRTIQGNILYSCPATNECEITKRRRKSCQACRFMKCLKVGMLKEGVRLD [E37L],-0.657 ± 0.09
21,KRLCLVCGDIASGYHYGVASCEACKAFFKRTIQGNIRYSCPATNECEITKRRRKSCQACRFMKCLKVGMLKEGVRLD [E37R],-0.371 ± 0.053
22,KRLCLVCGDIASGYHYGVASCEACKAFFKRTIQGNIMYSCPATNECEITKRRRKSCQACRFMKCLKVGMLKEGVRLD [E37M],-0.654 ± 0.14
23,KRLCLVCGDIASGYHYGVASCEACKAFFKRTIQGNIWYSCPATNECEITKRRRKSCQACRFMKCLKVGMLKEGVRLD [E37W],-0.543 ± 0.079
24,KRLCLVCGDIASGYHYGVASCEACKAFFKRTIQGNIPYSCPATNECEITKRRRKSCQACRFMKCLKVGMLKEGVRLD [E37P],-0.507 ± 0.14

row,Variant,abundance fitness
1,KRLCLVCGDIASGYHYGVASCEACKAFFKRTIQGNICYSCPATNECEITKRRRKSCQACRFMKCLKVGMLKEGVRLD [E37C],-0.158 ± 0.1
2,KRLCLVCGDIASGYHYGVASCEACKAFFKRTIQGNIHYSCPATNECEITKRRRKSCQACRFMKCLKVGMLKEGVRLD [E37H],-0.19 ± 0.14
3,KRLCLVCGDIASGYHYGVASCEACKAFFKRTIQGNIDYSCPATNECEITKRRRKSCQACRFMKCLKVGMLKEGVRLD [E37D],-0.423 ± 0.12
4,KRLCLVCGDIASGYHYGVASCEACKAFFKRTIQGLIEYSCPATNECEITKRRRKSCQACRFMKCLKVGMLKEGVRLD [N35L],-0.298 ± 0.05
5,KRLCLVCGDIASGYHYGVASCEACKAFFKRTIQGSIEYSCPATNECEITKRRRKSCQACRFMKCLKVGMLKEGVRLD [N35S],-0.129 ± 0.053
6,KRLCLVCGDIASGYHYGVASCEACKAFFKRTIQGKIEYSCPATNECEITKRRRKSCQACRFMKCLKVGMLKEGVRLD [N35K],0.027 ± 0.055
7,KRLCLVCGDIASGYHYGVASCEACKAFFKRTIQGTIEYSCPATNECEITKRRRKSCQACRFMKCLKVGMLKEGVRLD [N35T],-0.017 ± 0.056
8,KRLCLVCGDIASGYHYGVASCEACKAFFKRTIQGWIEYSCPATNECEITKRRRKSCQACRFMKCLKVGMLKEGVRLD [N35W],-0.298 ± 0.057
9,KRLCLVCGDIASGYHYGVASCEACKAFFKRTIQGIIEYSCPATNECEITKRRRKSCQACRFMKCLKVGMLKEGVRLD [N35I],-0.593 ± 0.17
10,KRLCLVCGDIASGYHYGVASCEACKAFFKRTIQGGIEYSCPATNECEITKRRRKSCQACRFMKCLKVGMLKEGVRLD [N35G],0.271 ± 0.035
11,KRLCLVCGDIASGYHYGVASCEACKAFFKRTIQGRIEYSCPATNECEITKRRRKSCQACRFMKCLKVGMLKEGVRLD [N35R],-0.047 ± 0.038
12,KRLCLVCGDIASGYHYGVASCEACKAFFKRTIQGVIEYSCPATNECEITKRRRKSCQACRFMKCLKVGMLKEGVRLD [N35V],-0.133 ± 0.045
13,KRLCLVCGDIASGYHYGVASCEACKAFFKRTIQGMIEYSCPATNECEITKRRRKSCQACRFMKCLKVGMLKEGVRLD [N35M],-0.317 ± 0.067
14,KRLCLVCGDIASGYHYGVASCEACKAFFKRTIQGHIEYSCPATNECEITKRRRKSCQACRFMKCLKVGMLKEGVRLD [N35H],0.031 ± 0.094
15,KRLCLVCGDIASGYHYGVASCEACKAFFKRTIQGQIEYSCPATNECEITKRRRKSCQACRFMKCLKVGMLKEGVRLD [N35Q],0.05 ± 0.055
16,KRLCLVCGDIASGYHYGVASCEACKAFFKRTIQGPIEYSCPATNECEITKRRRKSCQACRFMKCLKVGMLKEGVRLD [N35P],0.012 ± 0.069
17,KRLCLVCGDIASGYHYGVASCEACKAFFKRTIQGYIEYSCPATNECEITKRRRKSCQACRFMKCLKVGMLKEGVRLD [N35Y],-0.178 ± 0.12
18,KRLCLVCGDIASGYHYGVASCEACKAFFKRTIQGNIEYECPATNECEITKRRRKSCQACRFMKCLKVGMLKEGVRLD [S39E],0.303 ± 0.043
19,KRLCLVCGDIASGYHYGVASCEACKAFFKRTIQGNIEYCCPATNECEITKRRRKSCQACRFMKCLKVGMLKEGVRLD [S39C],0.189 ± 0.06
20,KRLCLVCGDIASGYHYGVASCEACKAFFKRTIQGNIEYACPATNECEITKRRRKSCQACRFMKCLKVGMLKEGVRLD [S39A],0.319 ± 0.038
21,KRLCLVCGDIASGYHYGVASCEACKAFFKRTIQGNIEYFCPATNECEITKRRRKSCQACRFMKCLKVGMLKEGVRLD [S39F],0.374 ± 0.1
22,KRLCLVCGDIASGYHYGVASCEACKAFFKRTIQGNIEYDCPATNECEITKRRRKSCQACRFMKCLKVGMLKEGVRLD [S39D],0.441 ± 0.076
23,KRLCLVCGDIASGYHYGVASCEACKAFFKRTIQGNIEYGCPATNECEITKRRRKSCQACRFMKCLKVGMLKEGVRLD [S39G],0.19 ± 0.036
